How the values were obtained:
[1] = target: human LOX-1 expressed on the cell surface (human) (UniProt P78380); assay: flow cytometry, DI-oxLDL on CHO/LOX-1 cells
[2] = target: purified recombinant human LOX1 comprised of the extracellular domain (ECD) of human LOX-1 (amino acids 61-273) with an N-terminal polyhistidine tag (human) (UniProt P78380); assay: AlphaScreen competition on His-LOX-1, unlabelled competitor titrated; labelled ligand biotin-CRP (1 ug/ml) with His-LOX-1 (1 ug/ml) by the panel list of paragraph 265; later sentences of paragraph 265 cite 2B and 2C the other way and the sheet prints no title
[3] = target: human LOX-1 expressed on the cell surface (human) (UniProt P78380); assay: flow cytometry: DI-oxLDL (0-100 ug/ml) on CHO/LOX-1 cells, 60 min at 4 C; y axis MFI Signal
[4] = target: human LOX-1 expressed on the cell surface (human) (UniProt P78380); assay: flow cytometry: DI-oxLDL (0-100 ug/ml) on CHO/LOX-1 cells, 60 min at 4 C, MFI

Kd [1]: 22 µg/mL
IC50 (read off the curve) [2]: 0.2 µg/mL
Bmax [3]: 96.6
Kd [4]: 22 µg/mL
Substance: Human oxidized LDL

Reference: US20090311271A1
